To fix the notation:
T1: GST-cleaved Kap95 (S. cerevisiae, UniProt Q06142 1-861)
T1 construct: Kap95 (karyopherin-beta), S. cerevisiae; also called purified Kap95; untagged Kap95; source: recombinant, purified, GST cleaved
T1 sequence (looked up): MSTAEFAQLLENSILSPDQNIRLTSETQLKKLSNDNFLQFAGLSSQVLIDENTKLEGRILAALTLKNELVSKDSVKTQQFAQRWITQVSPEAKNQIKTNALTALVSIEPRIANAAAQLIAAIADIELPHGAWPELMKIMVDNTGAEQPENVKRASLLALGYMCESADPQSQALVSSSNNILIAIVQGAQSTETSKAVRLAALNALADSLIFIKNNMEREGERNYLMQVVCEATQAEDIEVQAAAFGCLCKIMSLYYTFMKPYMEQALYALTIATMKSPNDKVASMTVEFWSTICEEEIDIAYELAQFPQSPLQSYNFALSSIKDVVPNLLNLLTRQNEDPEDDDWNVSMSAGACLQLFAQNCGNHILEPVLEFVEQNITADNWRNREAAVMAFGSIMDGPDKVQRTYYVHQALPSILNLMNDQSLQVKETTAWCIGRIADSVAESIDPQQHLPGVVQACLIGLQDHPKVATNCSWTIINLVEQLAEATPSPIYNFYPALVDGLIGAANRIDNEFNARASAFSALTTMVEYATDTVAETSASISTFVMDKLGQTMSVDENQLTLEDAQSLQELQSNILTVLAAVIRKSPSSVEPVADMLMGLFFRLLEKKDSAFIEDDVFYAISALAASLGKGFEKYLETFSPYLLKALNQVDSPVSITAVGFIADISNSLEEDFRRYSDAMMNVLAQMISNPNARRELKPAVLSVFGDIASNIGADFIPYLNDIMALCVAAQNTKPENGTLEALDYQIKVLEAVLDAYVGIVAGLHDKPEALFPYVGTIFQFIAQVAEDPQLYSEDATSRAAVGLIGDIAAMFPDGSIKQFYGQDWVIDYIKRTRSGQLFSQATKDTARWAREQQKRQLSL

B1: Srp1-6His (natural protein, S. cerevisiae, UniProt Q02821 1-542, looked up)
chain: MDNGTDSSTSKFVPEYRRTNFKNKGRFSADELRRRRDTQQVELRKAKRDEALAKRRNFIPPTDGADSDEEDESSVSADQQFYSQLQQELPQMTQQLNSDDMQEQLSATVKFRQILSREHRPPIDVVIQAGVVPRLVEFMRENQPEMLQLEAAWALTNIASGTSAQTKVVVDADAVPLFIQLLYTGSVEVKEQAIWALGNVAGDSTDYRDYVLQCNAMEPILGLFNSNKPSLIRTATWTLSNLCRGKKPQPDWSVVSQALPTLAKLIYSMDTETLVDACWAISYLSDGPQEAIQAVIDVRIPKRLVELLSHESTLVQTPALRAVGNIVTGNDLQTQVVINAGVLPALRLLLSSPKENIKKEACWTISNITAGNTEQIQAVIDANLIPPLVKLLEVAEYKTKKEACWAISNASSGGLQRPDIIRYLVSQGCIKPLCDLLEIADNRIIEVTLDALENILKMGEADKEARGLNINENADFIEKAGGMEKIFNCQQNENDKIYEKAYKIIETYFGEEEDAVDETMAPQNAGNTFGFGSNVNQQFNFN
notes: Srp1 (Kap60, karyopherin-alpha), S. cerevisiae; pET42b-based plasmid; also called karyopherin-α; Kap60; source: also co-expressed with GST-Sts1 in E. coli extract; not shown: 6His, C-terminal, kept
B2: full-length GST-Sts1 (natural protein, S. cerevisiae, UniProt P38637 1-319, looked up)
chain: MMGFEWGFKPSSKITQSTVSSQGTGNVMIPTAGVKQKRRYANEEQEEEELPRNKNVMKYGGVSKRRPQPGSLIRGQPLPLQRGMELMNKNQLQQLLVDLMTKHPEIQQSVHTRVIGLDFSIQKCLDMLKQKSEAVYQSIPYNRSYESNKLDDYAFVRMKPQILEFLNCLVDFILDNIPPRLENLHASLKFLDICTELVIKLPRFELASNNYYYDKCIEQLSHVWCTLIEHVARDRIILLADNSSVWKSHMTRLQVYNEHSNGLLERPLQLFKSLDMGSPSAASSSTLSLQESIIYHHDTMTANENNNNSGSAATDSPFN
notes: Sts1, S. cerevisiae, full length; also called FL; not shown: GST, N-terminal, kept

The target of one experiment is T1, GST-cleaved Kap95. The experiment can be described thus: pull-down; GST-Sts1 immobilised on GSH beads, incubated with equimolar Srp1-6His and GST-cleaved Kap95, 4 °C, 2 h; PBS, 0.1% Tween-20, 0.2 mM DTT, 0.2 mM PMSF; without Ran or then with four-fold molar excess of 6His-Gsp1GDP (complex largely intact); SDS-PAGE and protein staining. The note with it: both partners purified.

The target in the experiment “Srp1-6His” is B1. The description is as above. The note with it: both partners purified.

With B1, the binding result with GST-cleaved Kap95 was “binds”.
On to B2, for which the binding result with Srp1-6His and in the experiment with GST-cleaved Kap95 was “binds” each time.
